Literature values in publication PMC10046553.

Molecular target: CD71 (transferrin receptor 1) (Homo sapiens) (UniProt P02786)
Sequence (P02786 89-760): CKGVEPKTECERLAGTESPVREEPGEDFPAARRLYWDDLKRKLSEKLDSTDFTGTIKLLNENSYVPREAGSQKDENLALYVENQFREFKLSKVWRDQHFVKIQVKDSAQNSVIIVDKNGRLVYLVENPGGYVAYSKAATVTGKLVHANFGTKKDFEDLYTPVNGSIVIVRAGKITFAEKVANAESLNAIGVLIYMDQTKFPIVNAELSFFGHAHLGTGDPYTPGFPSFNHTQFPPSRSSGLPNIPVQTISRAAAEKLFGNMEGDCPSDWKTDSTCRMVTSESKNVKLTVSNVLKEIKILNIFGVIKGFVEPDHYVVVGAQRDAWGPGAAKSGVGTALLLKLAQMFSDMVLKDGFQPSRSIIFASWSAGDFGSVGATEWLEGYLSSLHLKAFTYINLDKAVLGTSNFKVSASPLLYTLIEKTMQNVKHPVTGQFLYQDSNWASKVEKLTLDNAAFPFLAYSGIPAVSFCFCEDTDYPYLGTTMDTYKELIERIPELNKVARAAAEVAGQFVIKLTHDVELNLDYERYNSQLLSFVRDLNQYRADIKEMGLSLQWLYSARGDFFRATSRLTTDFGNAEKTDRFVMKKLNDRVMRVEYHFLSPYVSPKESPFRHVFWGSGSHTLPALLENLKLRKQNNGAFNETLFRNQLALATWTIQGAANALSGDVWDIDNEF

Human serum albumin (from UniProt P02768)
Kd: 750 nM
